No end group written: not given here.
B1: P01.1 peptide (peptide)
chain: KKIVTILKKLVK-NH2
B2: P01.3 peptide (peptide)
chain: Ac-KKIVEILKKLVK-NH2

Tests used:
P01.1 peptide = target: T1, P01.1 peptide; experiment: concentration-dependent circular dichroism (222 nm, 40% TFE)
T1 chain: KKIVTILKKLVK

P01.3 peptide = target: T2, P01.3 peptide; experiment: as above
T2 chain: KKIVEILKKLVK

| Binder | Kd (P01.1 peptide) [µM] | Kd (P01.3 peptide) [µM] |
| --- | --- | --- |
| B1 | 769 |  |
| B2 |  | 51.5 |

Source: paper PMC12393466 (2025)
